Measured values from the supplement of paper PMC10724198.
± gives the standard deviation of the averaged measurements.

What follows are sequences tested on Saccharomyces cerevisiae (assay: protein stability index of tFT-peptide fusion (C-terminal peptide) (PSI (0-1 scale)); higher = more stable (slower turnover)). Details: genetic background: wild type; temperature: 30 C.
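Further: PSI is a weighted mean of sequencing reads over stability bins, variants kept only with over 10 reads, mCherry proximal and sfGFP distal, peptide attached via GGGS linker.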

| Sequence | protein stability index |
| --- | --- |
| QLDPLRPASEFA | 0.602 ± 0.043 |
| YSWRAKGVKRLR | 0.659 ± 0.029 |
| LHPRPPLLPSLP | 0.608 ± 0.07 |
| GRTWCFVGARPS | 0.698 ± 0.17 |
| GLRFVPLPLRPV | 0.73 ± 0.029 |
| KPLLSPPTIFPL | 0.711 ± 0.032 |
| NFPEATPSNYKV | 0.737 ± 0.015 |
| LFLSAFFFRFFD | 0.629 ± 0.045 |
| LGVGGPSVREGE | 0.706 ± 0.034 |
| LPAPLGPRIPSL | 0.753 ± 0.15 |
| LYKEQRNNCGKI | 0.662 ± 0.021 |
| ERGKRKASHRRR | 0.683 ± 0.041 |
| GTDEWKRKYNTP | 0.695 ± 0.045 |
| PPPPPPPPPSTP | 0.744 ± 0.016 |
| RKVKGKKRYTEG | 0.662 ± 0.058 |
| WLGTIVCGRGWW | 0.7003 ± 0.006 |
| LAVGAAGVLFGG | 0.776 ± 0.03 |
| ALRRKPRPRYPP | 0.621 ± 0.051 |
| PPLHPPLPPPPS | 0.71 ± 0.06 |
| RGSFGAWTVGGQ | 0.59 ± 0.026 |
| GCRRYLFLFFGC | 0.6 ± 0.047 |
| HPTLPSLQVSPS | 0.689 ± 0.031 |
| SGVVLVRCEGRR | 0.754 ± 0.15 |
| PLSPSFAPPSPA | 0.69672 ± 0.00044 |
| ARGRSACGKLIY | 0.654 ± 0.017 |
| VWAWGDGGGAVV | 0.728 ± 0.051 |

| Sequence | protein stability index |
| --- | --- |
| VLTSSVLPSFFP | 0.627 ± 0.018 |
| LRYSPLLFLSVV | 0.513 ± 0.013 |
| SLSIHPCHFGPS | 0.671 ± 0.03 |
| KKKEKKRGRRKV | 0.688 ± 0.073 |
| GVRIGYCIVRDV | 0.647 ± 0.022 |
| SMSPPLSLFPSF | 0.841 ± 0.096 |
| EVLFWRGVSRME | 0.725 ± 0.16 |
| LLYANDPTRPVI | 0.652 ± 0.015 |
| IMDHKSNSDKWI | 0.7193 ± 0.0011 |
| HERPVVLYGCTS | 0.637 ± 0.02 |
| VLHGFGSLRDRV | 0.717 ± 0.017 |
| LLLGLPLDVGDS | 0.708 ± 0.066 |
| PSGRPPGHDNLV | 0.666 ± 0.045 |
| RVHRSVVGYRRC | 0.611 ± 0.025 |
| LFGLLSSPLCVD | 0.63 ± 0.042 |
| LEAINRKGIWQE | 0.639 ± 0.083 |
| GPLPPLHPSPTI | 0.725 ± 0.016 |
| PLPPLTPASPHP | 0.72 ± 0.035 |
| QPQRSRLRQQNT | 0.734 ± 0.081 |
| KDDKQRKQHGKK | 0.6632 ± 0.0046 |
| SSFLFVPHHYPS | 0.706 ± 0.044 |
| GGVASGGCFWGR | 0.6761 ± 0.0053 |
| SLAGGSSAPSAS | 0.673 ± 0.013 |
| LVPTQGDFVVLL | 0.721 ± 0.053 |
| FPYPFSSSCFSS | 0.651 ± 0.062 |
| SKEERRKGSKKI | 0.686 ± 0.054 |

| Sequence | protein stability index |
| --- | --- |
| VAYYFVRNIIGE | 0.667 ± 0.056 |
| CSTYPLFPTLPP | 0.693 ± 0.049 |
| EKRKNKKYKNKM | 0.698 ± 0.049 |
| TPPTHPPPLPPL | 0.752 ± 0.11 |
| VVSDGRSYGLLK | 0.73703 ± 0.00014 |
| KRMPDERAKAGP | 0.694 ± 0.0079 |
| SWMDRGGSYSGI | 0.684 ± 0.12 |
| PGLRSQQLIAPI | 0.652 ± 0.069 |
| FWDSCAVSLYLR | 0.632 ± 0.041 |
| ALPFPASTSPLS | 0.701 ± 0.048 |
| GHSNRDCFGIKC | 0.621 ± 0.024 |
| RVGWCPCTGDRR | 0.663 ± 0.019 |
| GRGGGGGAVGEW | 0.683 ± 0.037 |
| HLLRGSSPDRYV | 0.737 ± 0.019 |
| ASNSSGHTTRAS | 0.6727 ± 0.003 |
| LWVGVVGRVRGV | 0.6609 ± 0.0062 |
| MPHLARVREVVH | 0.6178 ± 0.0026 |
| LNLRIGDVMRGG | 0.682 ± 0.022 |
| RVWNRHWMGASS | 0.776 ± 0.084 |
| CKCKLNKKTTKS | 0.701 ± 0.05 |
| RLLPLPRRTPPL | 0.852 ± 0.11 |
| DDGQWVGFCGWT | 0.749 ± 0.039 |
| KNKENLNINNKR | 0.747 ± 0.0078 |
| DGPALWPRSVVD | 0.684 ± 0.1 |
| AVCWGGSVGGVG | 0.69898 ± 0.00012 |
| YSRSSFSIPPPF | 0.7239 ± 0.003 |

| Sequence | protein stability index |
| --- | --- |
| VTCGVGQHAAIA | 0.731 ± 0.053 |
| NKRKSKKRNEIE | 0.6701 ± 0.0054 |
| FDSVAVLYSGGV | 0.66 ± 0.0078 |
| GGGDRRRTARLS | 0.578 ± 0.027 |
| IKKKKKKIKRNN | 0.654 ± 0.0099 |
| HNGYLKRIKISR | 0.707 ± 0.085 |
| GVSVSPVVHFFL | 0.73 ± 0.062 |
| YCTVDECWGRWH | 0.709 ± 0.08 |
| ATLVRTTWSCHG | 0.669 ± 0.014 |
| HGAEAWPDVGPG | 0.639 ± 0.021 |
| VKKSTPIKKPQT | 0.651 ± 0.062 |
| ELCWCSKDNCYP | 0.6993 ± 0.0059 |
| DLKIKKNDKKKK | 0.658 ± 0.0086 |
| AFRGGGVPGDFA | 0.624 ± 0.024 |
| DLVQFATEILMI | 0.612 ± 0.0064 |
| KIIQDCSSLSKK | 0.683 ± 0.033 |
| ASVLSTQDPGEY | 0.676 ± 0.055 |
| SLPSPIPPPSLL | 0.739 ± 0.29 |
| KNNKEKQKKKKR | 0.663 ± 0.084 |
| RRGRGGGRRVDA | 0.731 ± 0.021 |
| CAEGMCCCRGVG | 0.56 ± 0.013 |
| PGPCLLFPPFPP | 0.643 ± 0.012 |
| GDPADGACGPTR | 0.8 ± 0.062 |
